Bridge positions count the residues as written; N and C are the ends. Ends that are not written are not given here.
T1: sPHGDH (1-307) (Homo sapiens, UniProt O43175)
T1 construct: the truncated version of PHGDH (sPHGDH, 1-307); made in house
T1 sequence (O43175 1-307): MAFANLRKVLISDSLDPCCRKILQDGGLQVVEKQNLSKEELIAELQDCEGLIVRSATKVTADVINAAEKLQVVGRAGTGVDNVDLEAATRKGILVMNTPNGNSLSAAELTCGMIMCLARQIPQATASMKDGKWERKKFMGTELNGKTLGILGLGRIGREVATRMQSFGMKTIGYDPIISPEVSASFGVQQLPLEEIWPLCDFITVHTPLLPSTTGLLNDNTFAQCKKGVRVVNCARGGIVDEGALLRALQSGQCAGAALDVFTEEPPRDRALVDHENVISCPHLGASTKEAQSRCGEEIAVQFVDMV


Key:
sPHGDH (1-307) = biological target: T1, sPHGDH (1-307); assay: sPHGDH enzyme activity assay (NADH fluorescence); format: biochemical; details: sPHGDH; for Inhibition Rate (%): peptide concentration of 50 µM
Procedure: PHGDH activity in the presence of peptides was measured in 96-well plates (100 μL per well) at 25 °C, through monitoring the NADH fluorescence (excitation at 360 nm and emission at 460 nm) over time. PAST1 and its substrate glutamate were also included in order to prevent product inhibition. In the enzyme assays, protein expression and purification, including the truncated version of PHGDH (sPHGDH, 1-307), the full-length PHGDH (1-533), and PAST1, were carried out as described in our previous papers. To evaluate the effects of peptides on enzyme activity, the peptides were pre-incubated with enzyme samples (sPHGDH 453.3 nM or PHGDH 30.9 nM) in the assay buffer (HEPES 50 mM, pH 7.5, 10 mM MgCl2, and 1 mM EDTA) for 12 h. Then, 1.98 μM PAST1, 1 mM NAD^+, and 30 mM glutamate were added and pre-incubated for 10 min before initiating the enzyme reaction via the addition of the substrate (1 mM 3-PG). Fluorescence signals were recorded for 3 min with the kinetics-reading mode of the Biotek plate reader (Synergy). IC50 values were obtained through fitting the data using a three-parameter Hill model of the graph of log dose against the percentage inhibition from three repeated experiments. For those peptides containing two disulfide bonds, a second step of oxidation reaction was carried out to generate the second disulfide pair. […] The purified Acm-protected peptide was then treated with iodine (I2, 1 wt% in MeOH), dropwise under acidic conditions until the solution became brown.

[1] = biological target: truncated version of PHGDH (sPHGDH, 1-307) (human) (UniProt O43175)

| Molecule | Inhibition Rate (%) (sPHGDH (1-307)) | inhibitory activity on sPHGDH (in words) (sPHGDH (1-307)) | Inhibition rate of sPHGDH enzyme activity (NADH fluorescence) at 50 µM peptide; the pair blocked is the sPHGDH homo-dimer (m1+m1) [1] | IC50 of inhibition of sPHGDH enzyme activity (NADH fluorescence); the pair blocked is the sPHGDH homo-dimer (m1+m1) [1] |
| --- | --- | --- | --- | --- |
| C1TPQA TASMK DGKWE RKKC19 (CTPQATASMKDGKWERKKC; disulfide 1-19; not fully specified (N-terminus); printed as C_1_TPQATASMKDGKWERKKC_19_) [Cyc1-1, head-to-tail disulfide-cyclized peptide (C1-C19) from the PHGDH dimerization loop] | 40% | limited activity | – | – |
| C1TPQA TLLMK DGKWE EKKC19 (CTPQATLLMKDGKWEEKKC; disulfide 1-19; not fully specified (N-terminus); printed as C_1_TPQA TLLMK DGKWE EKKC_19_) [Cyc1-8, cyc1-2 with substitution S8L] | None | completely eliminated the activity | – | – |
| C1TPQA TLSMK NGSWQ EKKC19 (CTPQATLSMKNGSWQEKKC; disulfide 1-19; not fully specified (N-terminus); printed as C_1_TPQA TLSMK NGSWQ EKKC_19_) [Cyc1-10, cyc1-9 with added A7L] | None | inactive | – | – |
| C1TPQA TKSML DGKWE EKKC19 (CTPQATKSMLDGKWEEKKC; disulfide 1-19; not fully specified (N-terminus); printed as C_1_TPQA TKSML DGKWE EKKC_19_) [Cyc1-3, single disulfide cyclic peptide with substitution A7K] | 19% | largely decreased or abolished the activity | – | – |
| C1TPQA TESML RGKWE EKKC19 (CTPQATESMLRGKWEEKKC; disulfide 1-19; not fully specified (N-terminus); printed as C_1_TPQA TESML RGKWE EKKC_19_) [Cyc1-4, single disulfide cyclic peptide with A7E and D11R] | None | largely decreased or abolished the activity | – | – |
| C1TPQA TAC8MK DGKWC15 WKKC19 (CTPQATACMKDGKWCWKKC; disulfide 1-19, 8-15; not fully specified (N-terminus); printed as C_1_TPQA TAC_8_MK DGKWC_15_ WKKC_19_) [Cyc2-5, cyc2-1 with R16W] | 27% | – | – | – |
| C1TPQA TAC8MW DGKWC15 RKKC19 (CTPQATACMWDGKWCRKKC; disulfide 1-19, 8-15; not fully specified (N-terminus); printed as C_1_TPQA TAC_8_MW DGKWC_15_ RKKC_19_) [Cyc2-4, cyc2-1 with K10W] | 44% | – | – | – |
| CTPQATASMKDGKWERKKC (disulfide 1-19; not fully specified (N-terminus); printed as C_1_TPQATASMKDGKWERKKC_19_) [cyclic peptide cyc1-1] | – | – | 40% | – |
| CTPQATACMWDGKWCRKKC (disulfide 1-19, 8-15; not fully specified (N-terminus); printed as C_1_TPQA TAC_8_MW DGKWC_15_ RKKC_19_) [double constrained cyclic peptide cyc2-4] | – | – | 44% | – |
| CTPQATACMLDGKWCRKKC (disulfide 1-19, 8-15; not fully specified (N-terminus); printed as C_1_TPQA TAC_8_ML DGKWC_15_ RKKC_19_) [double constrained cyclic peptide cyc2-2] | – | – | – | 9.4 µM |

From publication PMC10563079 (Molecules, 2023)
